Laboratory results: patent publication US20240382606A1

Target: CD8 co-receptors on CD8+ T cells (OT-1 mouse splenocytes) (mouse) (UniProt P01731)
Assay: flow cytometry, noncognate APNs on OT-1 CD8+ splenocytes, in vitro

UniProt P01731, sequence (P01731 28-247, chain 1 of 2): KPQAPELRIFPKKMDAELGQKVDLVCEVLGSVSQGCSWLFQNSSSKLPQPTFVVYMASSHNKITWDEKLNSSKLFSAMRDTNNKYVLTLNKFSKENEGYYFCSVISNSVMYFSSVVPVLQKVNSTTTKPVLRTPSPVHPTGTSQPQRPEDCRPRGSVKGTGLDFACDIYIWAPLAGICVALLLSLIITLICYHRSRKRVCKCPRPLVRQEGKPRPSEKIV
UniProt P01731, sequence (P10300 22-213, chain 2 of 2, further chain): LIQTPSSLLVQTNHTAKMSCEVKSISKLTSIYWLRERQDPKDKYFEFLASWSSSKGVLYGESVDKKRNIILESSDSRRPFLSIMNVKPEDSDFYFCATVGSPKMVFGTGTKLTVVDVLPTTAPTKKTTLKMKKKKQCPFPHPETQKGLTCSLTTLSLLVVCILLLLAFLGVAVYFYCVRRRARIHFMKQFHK

With “NS2/K^b antigen-presenting nanoparticle (APN): NS2 peptide RTFSFQLI on H2-K^b on an mRNA lipid nanoparticle (peptide-MHC)” the percent cross-reactivity was 10%.
